Data taken from publication PMC13480463 (Science translational medicine, 2021).

Target: T1, Fzd3 (receptor of the AP binding assays) (UniProt Q61086 23-666)
T1 sequence (looked up): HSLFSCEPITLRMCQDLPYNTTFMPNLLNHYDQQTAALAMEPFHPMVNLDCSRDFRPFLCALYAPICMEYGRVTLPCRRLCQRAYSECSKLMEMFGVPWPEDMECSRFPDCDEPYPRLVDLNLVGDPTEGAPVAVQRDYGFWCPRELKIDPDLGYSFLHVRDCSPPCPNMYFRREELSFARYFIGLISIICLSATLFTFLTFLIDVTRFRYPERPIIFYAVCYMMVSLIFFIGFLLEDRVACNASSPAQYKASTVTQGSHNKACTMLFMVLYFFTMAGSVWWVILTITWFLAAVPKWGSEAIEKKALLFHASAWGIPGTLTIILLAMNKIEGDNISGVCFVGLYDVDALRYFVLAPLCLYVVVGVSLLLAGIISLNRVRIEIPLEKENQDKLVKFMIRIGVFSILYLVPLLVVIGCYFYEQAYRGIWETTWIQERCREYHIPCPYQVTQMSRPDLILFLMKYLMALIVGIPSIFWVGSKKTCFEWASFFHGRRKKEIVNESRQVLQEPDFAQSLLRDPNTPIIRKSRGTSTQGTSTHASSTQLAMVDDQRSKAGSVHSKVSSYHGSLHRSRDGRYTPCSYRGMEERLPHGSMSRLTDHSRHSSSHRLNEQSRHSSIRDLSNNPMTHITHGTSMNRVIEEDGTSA
Assay: alkaline phosphatase

Kd: 0.27 nM
B1: AP-tagged TSK protein (TSK-AP) (ligand, mouse, UniProt Q8CBR6 18-354, looked up)
chain: TRPCFPGCQCEEETFGLFDSFSLIRVDCSSLGPHIVPVPIPLDTAHLDLSSNRLETVNESVLAGPGYTTLAGLDLSYNLLTSIMPSAFSRLRYLESLDLSHNGLAALPAEIFTSSPLSDINLSHNRLREVSISAFTTHSQGRALHVDLSHNLIHRLLPHPARASLPAPTIQSLNLSWNRFRAVPDLRDLPLRYLSLDGNPLATINPDAFMGLAGLTHLSLASLQGILHLPPHGFRELPGLQVLDLSGNPKLKWAGAEVFSGLGLLQELDLSGSSLVPLPEMLLHHLPALQSVSVGQDVQCRRLVREGAYHRQPGSSPKVVLHCGDTQESAARGPDIL
